Experimental data taken from patent US20230002480A1.

What was measured:
Assay in all cases: cell-based or functional assay
[1] = molecular target: HIV-1 Env of pseudovirus 6535.3 (HIV-1)
[2] = molecular target: HIV-1 Env of pseudovirus CAAN5342.A2 (HIV-1)
[3] = molecular target: HIV-1 Env of pseudovirus CNE58 (HIV-1)
[4] = molecular target: HIV-1 Env of pseudovirus ZM109F.PB4 (HIV-1)
[5] = molecular target: HIV-1 Env of pseudovirus CNE30 (HIV-1)
[6] = molecular target: HIV-1 Env of pseudovirus SC422661.8 (HIV-1)
[7] = molecular target: HIV-1 Env of pseudovirus 1394C9G1(Rev-) (HIV-1)
[8] = molecular target: HIV-1 Env of pseudovirus CAP210.2.00.E8 (HIV-1)
[9] = molecular target: HIV-1 Env of pseudovirus HIV-001428-2.42 (HIV-1)
[10] = molecular target: HIV-1 Env of pseudovirus RHPA4259.7 (HIV-1)
[11] = molecular target: HIV-1 Env of pseudovirus WITO4160.33 (HIV-1)
[12] = molecular target: HIV-1 Env of pseudovirus 6244_13_B5_4576 (HIV-1)
[13] = molecular target: HIV-1 Env of pseudovirus 0260.v5.c36 (HIV-1)
[14] = molecular target: HIV-1 Env of pseudovirus 246F C1G (HIV-1)
[15] = molecular target: HIV-1 Env of pseudovirus 191955_A11 (HIV-1)
[16] = molecular target: HIV-1 Env of pseudovirus BF1266.431a (HIV-1)
[17] = molecular target: HIV-1 Env of pseudovirus HIV-16055-2.3 (HIV-1)
[18] = molecular target: HIV-1 Env of pseudovirus CAP45.2.00.G3 (HIV-1)
[19] = molecular target: HIV-1 Env of pseudovirus THRO4156.18 (HIV-1)
[20] = molecular target: HIV-1 Env of pseudovirus 6240_08_TA5_4622 (HIV-1)
[21] = molecular target: HIV-1 Env of pseudovirus Q769.d22 (HIV-1)
[22] = molecular target: HIV-1 Env of pseudovirus Ce0393_C3 (HIV-1)
[23] = molecular target: HIV-1 Env of pseudovirus Ce1172_H1 (HIV-1)
[24] = molecular target: HIV-1 Env of pseudovirus 9004SS_A3_4 (HIV-1)
[25] = molecular target: HIV-1 Env of pseudovirus 3103.v3.c10 (HIV-1)
[26] = molecular target: HIV-1 Env of pseudovirus BJOX025000.01.1 (HIV-1)
[27] = molecular target: HIV-1 Env of pseudovirus X1193_c1 (HIV-1)
[28] = molecular target: HIV-1 Env of pseudovirus CNE8 (HIV-1)
[29] = molecular target: HIV-1 Env of pseudovirus T255-34 (HIV-1)
[30] = molecular target: HIV-1 Env of pseudovirus X2131_C1_B5 (HIV-1)
[31] = molecular target: HIV-1 Env of pseudovirus 620345.c01 (HIV-1)
[32] = molecular target: HIV-1 Env of pseudovirus 0815.v3.c3 (HIV-1)
[33] = molecular target: HIV-1 Env of pseudovirus C3347.c11 (HIV-1)
[34] = molecular target: HIV-1 Env of pseudovirus 211-9 (HIV-1)
[35] = molecular target: HIV-1 Env of pseudovirus 3817.v2.c59 (HIV-1)

**Q.** Which IC50, titer in TZM.bl cells [1] does the source give for 10-1074 (antibody) here?
**A.** 0.014 µg/mL

**Q.** And the IC80, titer in TZM.bl cells [1]?
**A.** 0.026 µg/mL

**Q.** And the IC50, titer in TZM.bl cells [2]?
**A.** 0.007 µg/mL

**Q.** What about the IC80, titer in TZM.bl cells [2] of the same substance?
**A.** 0.036 µg/mL

**Q.** What about the IC50, titer in TZM.bl cells [3] of the same substance?
**A.** 0.267 µg/mL

**Q.** And the IC80, titer in TZM.bl cells [3]?
**A.** 0.968 µg/mL

**Q.** What about the IC50, titer in TZM.bl cells [4] of the same substance?
**A.** > 50 µg/mL

**Q.** And the IC80, titer in TZM.bl cells [4]?
**A.** > 50 µg/mL

**Q.** What about the IC50, titer in TZM.bl cells [5] of the same substance?
**A.** 0.363 µg/mL

**Q.** And the IC80, titer in TZM.bl cells [5]?
**A.** 1.2 µg/mL

**Q.** What about the IC50, titer in TZM.bl cells [6] of the same substance?
**A.** 0.091 µg/mL

**Q.** What about the IC80, titer in TZM.bl cells [6] of the same substance?
**A.** 0.418 µg/mL

**Q.** What about the IC50, titer in TZM.bl cells [7] of the same substance?
**A.** 0.05 µg/mL

**Q.** And the IC80, titer in TZM.bl cells [7]?
**A.** 0.191 µg/mL

**Q.** What about the IC50, titer in TZM.bl cells [8] of the same substance?
**A.** > 50 µg/mL

**Q.** What about the IC80, titer in TZM.bl cells [8] of the same substance?
**A.** > 50 µg/mL

**Q.** What about the IC50, titer in TZM.bl cells [9] of the same substance?
**A.** 0.044 µg/mL

**Q.** What about the IC80, titer in TZM.bl cells [9] of the same substance?
**A.** 0.261 µg/mL

**Q.** What about the IC50, titer in TZM.bl cells [10] of the same substance?
**A.** 0.021 µg/mL

**Q.** What about the IC80, titer in TZM.bl cells [10] of the same substance?
**A.** 0.118 µg/mL

**Q.** What about the IC50, titer in TZM.bl cells [11] of the same substance?
**A.** 0.185 µg/mL

**Q.** What about the IC80, titer in TZM.bl cells [11] of the same substance?
**A.** 2.11 µg/mL

**Q.** And the IC50, titer in TZM.bl cells [12]?
**A.** 0.202 µg/mL

**Q.** What about the IC80, titer in TZM.bl cells [12] of the same substance?
**A.** 0.922 µg/mL

**Q.** And the IC50, titer in TZM.bl cells [13]?
**A.** 0.099 µg/mL

**Q.** What about the IC80, titer in TZM.bl cells [13] of the same substance?
**A.** 0.16 µg/mL

**Q.** What about the IC50, titer in TZM.bl cells [14] of the same substance?
**A.** 0.022 µg/mL

**Q.** And the IC80, titer in TZM.bl cells [14]?
**A.** 0.111 µg/mL

**Q.** And the IC50, titer in TZM.bl cells [15]?
**A.** > 50 µg/mL

**Q.** What about the IC80, titer in TZM.bl cells [15] of the same substance?
**A.** > 50 µg/mL

**Q.** What about the IC50, titer in TZM.bl cells [16] of the same substance?
**A.** > 50 µg/mL

**Q.** What about the IC80, titer in TZM.bl cells [16] of the same substance?
**A.** > 50 µg/mL

**Q.** And the IC50, titer in TZM.bl cells [17]?
**A.** > 50 µg/mL

**Q.** What about the IC80, titer in TZM.bl cells [17] of the same substance?
**A.** > 50 µg/mL

**Q.** And the IC50, titer in TZM.bl cells [18]?
**A.** > 50 µg/mL

**Q.** And the IC80, titer in TZM.bl cells [18]?
**A.** > 50 µg/mL

**Q.** And the IC50, titer in TZM.bl cells [19]?
**A.** > 50 µg/mL

**Q.** What about the IC80, titer in TZM.bl cells [19] of the same substance?
**A.** > 50 µg/mL

**Q.** And the IC50, titer in TZM.bl cells [20]?
**A.** 0.068 µg/mL

**Q.** And the IC80, titer in TZM.bl cells [20]?
**A.** 0.306 µg/mL

**Q.** What about the IC50, titer in TZM.bl cells [21] of the same substance?
**A.** > 50 µg/mL

**Q.** And the IC80, titer in TZM.bl cells [21]?
**A.** > 50 µg/mL

**Q.** And the IC50, titer in TZM.bl cells [22]?
**A.** > 50 µg/mL

**Q.** What about the IC80, titer in TZM.bl cells [22] of the same substance?
**A.** > 50 µg/mL

**Q.** And the IC50, titer in TZM.bl cells [23]?
**A.** 0.047 µg/mL

**Q.** And the IC80, titer in TZM.bl cells [23]?
**A.** 0.166 µg/mL

**Q.** What about the IC50, titer in TZM.bl cells [24] of the same substance?
**A.** 0.011 µg/mL

**Q.** And the IC80, titer in TZM.bl cells [24]?
**A.** 0.03 µg/mL

**Q.** What does the source list for PGT151 (antibody)?
**A.** IC50 [1]: < 0.001 µg/mL; IC80 [1]: 0.012 µg/mL; IC50 [2]: 0.005 µg/mL; IC80 [2]: 0.038 µg/mL; IC50, titer in TZM.bl cells [25]: 0.014 µg/mL; IC80, titer in TZM.bl cells [25]: 0.202 µg/mL; IC50 [3]: 0.004 µg/mL; IC80 [3]: 0.016 µg/mL; IC50, titer in TZM.bl cells [26]: > 50 µg/mL; IC80, titer in TZM.bl cells [26]: > 50 µg/mL; IC50 [4]: 0.609 µg/mL; IC80 [4]: > 50 µg/mL; IC50 [5]: > 50 µg/mL; IC80 [5]: > 50 µg/mL; IC50 [6]: 0.005 µg/mL; IC80 [6]: 0.028 µg/mL; IC50, titer in TZM.bl cells [27]: 0.004 µg/mL; IC80, titer in TZM.bl cells [27]: 0.027 µg/mL; IC50 [7]: 0.022 µg/mL; IC80 [7]: 0.733 µg/mL; IC50 [8]: 0.01 µg/mL; IC80 [8]: 0.208 µg/mL; IC50, titer in TZM.bl cells [28]: > 50 µg/mL; IC80, titer in TZM.bl cells [28]: > 50 µg/mL; IC50, titer in TZM.bl cells [29]: 0.002 µg/mL; IC80, titer in TZM.bl cells [29]: 0.01 µg/mL; IC50 [9]: 0.027 µg/mL; IC80 [9]: > 50 µg/mL; IC50 [10]: 0.006 µg/mL; IC80 [10]: 0.033 µg/mL; IC50 [11]: 0.002 µg/mL; IC80 [11]: 0.021 µg/mL; IC50 [12]: > 50 µg/mL; IC80 [12]: > 50 µg/mL; IC50 [13]: 0.427 µg/mL; IC80 [13]: > 50 µg/mL; IC50 [14]: > 50 µg/mL; IC80 [14]: > 50 µg/mL; IC50, titer in TZM.bl cells [30]: 0.007 µg/mL; IC80, titer in TZM.bl cells [30]: 0.036 µg/mL; IC50 [15]: 0.004 µg/mL; IC80 [15]: 0.014 µg/mL; IC50 [16]: > 50 µg/mL; IC80 [16]: > 50 µg/mL; IC50 [17]: 0.143 µg/mL; IC80 [17]: > 50 µg/mL; IC50, titer in TZM.bl cells [31]: > 50 µg/mL; IC80, titer in TZM.bl cells [31]: > 50 µg/mL; IC50 [18]: 0.007 µg/mL; IC80 [18]: > 50 µg/mL; IC50 [19]: > 50 µg/mL; IC80 [19]: > 50 µg/mL; IC50 [20]: 0.046 µg/mL; IC80 [20]: 0.42 µg/mL; IC50 [21]: > 50 µg/mL; IC80 [21]: > 50 µg/mL; IC50 [22]: > 50 µg/mL; IC80 [22]: > 50 µg/mL; IC50 [23]: > 50 µg/mL; IC80 [23]: > 50 µg/mL; IC50 [24]: 0.003 µg/mL; IC80 [24]: 0.015 µg/mL; IC50, titer in TZM.bl cells [32]: > 50 µg/mL; IC80, titer in TZM.bl cells [32]: > 50 µg/mL; IC50, titer in TZM.bl cells [33]: > 50 µg/mL; IC80, titer in TZM.bl cells [33]: > 50 µg/mL; IC50, titer in TZM.bl cells [34]: 0.002 µg/mL; IC80, titer in TZM.bl cells [34]: 0.01 µg/mL; IC50, titer in TZM.bl cells [35]: > 50 µg/mL; IC80, titer in TZM.bl cells [35]: > 50 µg/mL
